Reference: doi:10.1101/2023.01.16.523357

Legend:
[1] = molecular target: ΔN15MsDps2 (MsDps2 with the first 15 N-terminal amino acids deleted) (Mycobacterium smegmatis); test: negative-stain electron microscopy
[2] = molecular target: Mycobacterium smegmatis Dps2 (MsDps2), wild type (Mycobacterium smegmatis); test: SEC

Substance	stoichiometry N [1]	stoichiometry N [2]
ΔN15MsDps2 (MsDps2 with the first 15 N-terminal amino acids deleted) (domain or fragment)	12	–
Mycobacterium smegmatis Dps2 (MsDps2), wild type (natural protein)	–	12
